Data taken from patent US20220251186A1 (TAVOTEK BIOTHERAPEUTICS HONG KONG, published 2022).
Residue numbers refer to the chain shown, from its start. Names may count otherwise. Values belong to the binder of their own block, whether it stands above or below them.

Legend:
[1] = target: T1, recombinant mouse FcRn (R&D Systems) (mouse, UniProt Q61559 22-297; P01887 21-119, limits assumed); test: ELISA at pH 6.0, 1 µg/mL recombinant mouse FcRn coated, HRP anti-human detection
T1 sequence (looked up) 1: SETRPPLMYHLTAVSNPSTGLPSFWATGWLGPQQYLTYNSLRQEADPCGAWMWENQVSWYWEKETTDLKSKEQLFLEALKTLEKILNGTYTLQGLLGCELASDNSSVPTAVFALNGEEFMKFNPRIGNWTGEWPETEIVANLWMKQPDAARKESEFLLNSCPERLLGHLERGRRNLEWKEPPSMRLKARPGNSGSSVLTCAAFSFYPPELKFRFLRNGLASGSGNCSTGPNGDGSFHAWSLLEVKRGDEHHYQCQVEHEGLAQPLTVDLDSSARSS
T1 sequence (looked up) 2: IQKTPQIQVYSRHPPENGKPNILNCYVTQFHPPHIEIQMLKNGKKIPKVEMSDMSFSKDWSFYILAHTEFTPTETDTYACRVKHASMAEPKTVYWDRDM
Method: 1 μg/mL recombinant mouse FcRn (R&D Systems) were coated on ELISA plate.

[2] = target: T2, Cynomolgus monkey TSLP (Cynomolgus monkey, UniProt A0A7N9CAT7 29-159); test: ELISA, plate coated with cynomolgus monkey TSLP, antibody titrated, OD 450 nm
T2 construct: also called cynomolgus TSLP

[3] = target: T3, recombinant human TSLP (R&D Systems) (human, UniProt Q969D9 29-159); test: ELISA, plate coated with 1 µg/mL recombinant human TSLP, antibody titrated, HRP-conjugated secondary antibody, OD 450 nm
T3 construct: also called thymic stromal lymphopoietin

[4] = target: T3, recombinant human TSLP (R&D Systems); test: cell-based or functional assay
[5] = target: T3, recombinant human TSLP (R&D Systems); test: ELISA, 1 µg/mL recombinant human TSLP coated, HRP anti-mouse detection
[6] = target: T4, mouse TSLP (R&D Systems) (mouse, UniProt Q9JIE6 20-140); test: ELISA, plate coated with mouse TSLP, antibody titrated, HRP-conjugated anti-mouse secondary antibody, OD 450 nm
T4 sequence (looked up): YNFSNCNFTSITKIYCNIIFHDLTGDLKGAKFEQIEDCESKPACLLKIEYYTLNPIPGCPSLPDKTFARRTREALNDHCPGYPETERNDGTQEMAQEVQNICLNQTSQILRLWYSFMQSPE

fold better potency than TAVO7265 [1]: ~10 fold
B1: TAVO9765 (antibody, human IgG1, kappa, L234A L235A)
heavy: QVQLVQSGAEVKKPGSSVKVSCKASGYTFSSYWVNWVRQAPGQGLEWIGQIYPGDGDTDYAQKFQGRATLTADKSTSTAYMELSSLRSEDTAVYFCARGTYYNNYYGTDYWGQGTTVTVSSASTKGPSVFPLAPSSKSTSGGTAALGCLVKDYFPEPVTVSWNSGALTSGVHTFPAVLQSSGLYSLSSVVTVPSSSLGTQTYICNVNHKPSNTKVDKKVEPKSCDKTHTCPPCPAPEAAGGPSVFLFPPKPKDTLMISRTPEVTCVVVDVSHEDPEVKFNWYVDGVEVHNAKTKPREEQYNSTYRVVSVLTVLHQDWLNGKEYKCKVSNKALPAPIEKTISKAKGQPREPQVYTLPPSREEMTKNQVSLTCLVKGFYPSDIAVEWESNGQPENNYKTTPPVLDSDGSFFLYSKLTVDKSRWQQGNVFSCSVLHEALHSHYTQKSLSLSPGK
light: EIVLTQSPDFQSVTPKEKVTITCSVSSSISSSNLHWYQQKPDQSPKPWIYGTSNLASGVPSRFSGSGSGTDYTLTINSLEAEDAATYYCQQWSSYPLTFGQGTKLEIKRTVAAPSVFIFPPSDEQLKSGTASVVCLLNNFYPREAKVQWKVDNALQSGNSQESVTEQDSKDSTYSLSSTLTLSKADYEKHKVYACEVTHQGLSSPVTKSFNRGEC
notes: also called humanized TAVO202 antibody 202H2/202L4 with human IgG1 Fc (L234A, L235A, M428L, N434S)

binding result [2]: no binding (tested: 1 µg/mL)
B2: TAVO7265 (antibody, human IgG1, kappa)
heavy: B1 heavy with A238F, A239E, D269A, F409L, L432M, S438N
light: B1 light
notes: also called humanized TAVO202 antibody 202H2/202L4 with human IgG1 Fc (L234F, L235E, D265A, F405L)

EC50 (read off the curve) [3]: ~2 ng/mL
B3: TAVO6264 (antibody, human IgG2, kappa)
heavy: QVQLVQSGAEVKKPGSSVKVSCKASGYTFSSYWVNWVRQAPGQGLEWIGQIYPGDGDTDYAQKFQGRATLTADKSTSTAYMELSSLRSEDTAVYFCARGTYYNNYYGTDYWGQGTTVTVSSASTKGPSVFPLAPCSRSTSESTAALGCLVKDYFPEPVTVSWNSGALTSGVHTFPAVLQSSGLYSLSSVVTVPSSNFGTQTYTCNVDHKPSNTKVDKTVERKCCVECPPCPAPPVAGPSVFLFPPKPKDTLMISRTPEVTCVVVDVSHEDPEVQFNWYVDGVEVHNAKTKPREEQFNSTFRVVSVLTVVHQDWLNGKEYKCKVSNKGLPAPIEKTISKTKGQPREPQVYTLPPSREEMTKNQVSLTCLVKGFYPSDIAVEWESNGQPENNYKTTPPMLDSDGSFFLYSKLTVDKSRWQQGNVFSCSVMHEALHNHYTQKSLSLSPGK
light: DIQLTQSPSFLSASVGDRVTITCSVSSSISSSNLHWYQQKPGKAPKPWIYGTSNLASGVPSRFSGSGSGTEYTLTISSLQPEDAATYYCQQWSSYPLTFGQGTKLEIKRTVAAPSVFIFPPSDEQLKSGTASVVCLLNNFYPREAKVQWKVDNALQSGNSQESVTEQDSKDSTYSLSSTLTLSKADYEKHKVYACEVTHQGLSSPVTKSFNRGEC
notes: Human IgG2 Fc; also called humanized TAVO202 antibody 202H2/202L3 with human IgG2 Fc

EC50 (read off the curve) [3]: ~2 ng/mL
B4: TAVO6265 (antibody, human IgG2, kappa)
heavy: B3 heavy
light: B1 light
notes: Human IgG2 Fc; also called humanized TAVO202 antibody 202H2/202L4 with human IgG2 Fc

binding result [2]: no binding (tested: 1 µg/mL)
B5: TAVO7264 (antibody, human IgG1, kappa)
heavy: B1 heavy with A238F, A239E, D269A, F409L, L432M, S438N
light: B3 light
notes: also called humanized TAVO202 antibody 202H2/202L3 with human IgG1 Fc (L234F, L235E, D265A, F405L)

IC50, neutralization of TSLP-driven STAT5 luciferase reporter gene expression (10 ng/mL human TSLP) [4]: 20 ng/mL | IC50, neutralization of TSLP-driven proliferation of transfected BAF3 cells (0.5 ng/mL human TSLP) [4]: 6.6 ng/mL | EC50 [5]: 2.4 ng/mL | binding result [6]: no binding (tested: about 5 µg/mL)
B6: mouse monoclonal anti-human TSLP antibody TAVO202 (antibody, V domains shown)
VH: QVQLQQSGAELVRPGSSVKISCKASGYTFSSYWVNWVKQRPGQGLEWIGQIYPGDGDTDYNGKFKGKATLTADKSSSTAYMQLSSLTSEDSAVYFCARGTYYNNYYGTDYWGQGTSVTVSS
VL: EIVLTQSPALMAASPGEKVTITCSVSSSISSSNLHWYQQKSETSPKPWIYGTSNLASGVPVRFSGSGSGTSYSLTISSMEAEDAATYYCQQWSSYPLTFGGGTKLEIK
notes: Mouse monoclonal antibody from hybridoma screening; also called mouse anti-TSLP antibody TAVO202
